Data from the supplement of paper PMC12042874.
± gives the uncertainty stated by the source.

test: amyloid nucleation score (Sup35N fusion, yeast selection) (log enrichment); library NNK3; higher = more nucleation; inactive = no reads after selection
Procedure, shortened: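 The nucleation score equals the log enrichment of output over input reads from DiMSum, centred on the mode score of non-aggregating sequences. It was computed only for sequences with 100 or more input reads. The reads came from Illumina sequencing of plasmid inserts from psi-negative yeast expressing Sup35N fused to peptides of 20 random codons, induced with 100 μM copper sulfate for 24 hours and grown 7 days at 30°C without adenine and uracil.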

| Substance | amyloid nucleation score |
| --- | --- |
| CEVGQCQGYVELLSYIHYNS | inactive |
| CEWNS | inactive |
| CFAKCFMKNLRSIGRVFLMG | inactive |
| CFCRMNIGGHCGVRRKLKV | inactive |
| CFDCTVF | inactive |
| CFGCVWLTITTNFPTVLFRG | inactive |
| CFGISLTESMSTSQNVVLDH | inactive |
| CFGRSGPW | inactive |
| CFLVTVSSGTASMQVLGRSG | 1.23 ± 0.14 |
| CFLYYRM | 1.17 ± 0.11 |
| CFNNKVVNTWRICMVGLSLS | inactive |
| CFPIPVWRGDLNGAPRYAQM | inactive |
| CFRPPFTFRYFALARGKAAD | inactive |
| CFSLGVCGQAKVNVWNNIYV | 2.71 ± 0.054 |
| CGGGALLDICLPFICPVNGL | 0.843 ± 0.19 |
| CGGLHQHNLMRRCRWMKPGE | inactive |
| CGLDSCLVICQYK | 0.584 ± 0.28 |
| CGNTSIV | inactive |
| CHASEWACYATLFLQT | inactive |
| CHLPQRP | 0.989 ± 0.2 |
| CHPLGRCALWWCFVPHGRFA | inactive |
| CIDQTTLKHTLDNCLIFF | inactive |
| CIDSYLMYVFVAQQPGN | inactive |
| CIFFWSALARLFFGLFNYPC | inactive |

| Substance | amyloid nucleation score |
| --- | --- |
| CIFLDGVAPFWMGESRWRSG | inactive |
| CIFMRIYGVC | inactive |
| CIILAGYISLLRLDNDSGWV | inactive |
| CIILRVCTHLVKSSARLPAP | inactive |
| CIPPCW | inactive |
| CIRSS | inactive |
| CISRKFFSVRSVYLWYVSAT | inactive |
| CISSCYWWFGFYVLKWE | inactive |
| CIYCTSSL | 0.519 ± 0.21 |
| CIYNVKALIQRVWIMIEVTS | 0.707 ± 0.13 |
| CKIRGCKVLLDFVMASVDLW | inactive |
| CKMRYEDESWFKWVVDLSFN | inactive |
| CKNLWRVLGISPTRSSSMRV | inactive |
| CKRCIPMRYYQL | inactive |
| CKRHLNYSVSRAKAEKINYL | inactive |
| CKSDFCISNVLWLYGLKFQR | inactive |
| CKTHQVSYAYLC | inactive |
| CKTLFFCMWNCFCFTVYSWF | inactive |
| CLCSDTNVK | inactive |
| CLELK | -0.204 ± 1.1 |
| CLGMSFLRRMGTMSAYPTIK | inactive |
| CLMVKHYFFVSSWRFNVFGI | inactive |
| CLPSFRGFTTNIMGLIRSRV | inactive |
| CLPSVRQKGSWRLR | -0.338 ± 0.82 |

| Substance | amyloid nucleation score |
| --- | --- |
| CLQDPFPTIVPIVMGSIAKE | inactive |
| CLRDCKTPDSATHTRAINGL | inactive |
| CLRMGYVLRSRWERLDCLKW | inactive |
| CLRRTLEPW | inactive |
| CLRRVPLQRSSFLSVNLKLM | inactive |
| CLTYHSCIFRVHLFTISINV | inactive |
| CLVGPVHPMFVL | inactive |
| CLVNNLCVLR | 0.047 ± 0.55 |
| CLVTLVLTKFWCMCASSAVD | inactive |
| CLVVKLFHTSSCMNSYMRGG | 1.67 ± 0.11 |
| CLYIKVFEFNS | 2.16 ± 0.076 |
| CLYKSFLIS | inactive |
| CMAIVATATRSGPVGRSLAK | 0.508 ± 0.33 |
| CMAMSFPWWWYTGIITYSL | inactive |
| CMFFLLPIIAYSV | inactive |
| CMFKGHAELLRWVL | inactive |
| CMIMRAFRYNVALDMHMLHD | inactive |
| CMKLYRHFLNKASVHSDKGV | inactive |
| CMRYVGSPDNRHWASGKGIP | inactive |
| CMVFMYQILVPAWALRSYIL | inactive |
| CMVLDGRYNGWSISVWDARL | inactive |
| CMVNFS | inactive |
| CNCPPPPSSRYYSFSKAVYG | inactive |
| CNCVRWWRSSSTTNG | inactive |

| Substance | amyloid nucleation score |
| --- | --- |
| CNHLSSTCFT | inactive |
| CNLGWRNLDMVKG | inactive |
| CNLVVYCMSDNDV | 2.33 ± 0.049 |
| CNQTSM | inactive |
| CNVGPVSLFRFMGPLNYRDE | inactive |
| CNVIE | inactive |
| CNYCALLTCLRGMPN | 1.16 ± 0.12 |
| CPCFNLV | inactive |
| CPGVHWHDVK | inactive |
| CPLLSGFDESWDVEYDAQGD | inactive |
| CPLVFDMILVSLCSNGAGLI | inactive |
| CPTVMAYGKTGG | 0.934 ± 0.21 |
| CPVTIYSVYNTASVKALFLR | inactive |
| CQISWL | inactive |
| CQRYQALSNCPYSATWGSDT | inactive |
| CQVSCFNLVSIKSWDKIAGS | 2.52 ± 0.06 |
| CRAVND | inactive |
| CRDSWFWSV | inactive |
| CRHTLSRHDVTRCNSEVSSL | inactive |
| CRMDGIKGSEIRNADAWAIY | inactive |
| CRNSEKVWDPQRTVRALSRF | inactive |
| CRRFELS | -1.04 ± 1.9 |
| CRSGCQ | inactive |
| CRVAMILSCFTMVFCSQAAT | 1.5 ± 0.081 |

| Substance | amyloid nucleation score |
| --- | --- |
| CRVSGGTCMTGISDRRRERI | inactive |
| CRYESVYLNVEILPVTVAVV | inactive |
| CRYSLWSFSQMGEWMPRCER | inactive |
| CSCYENFELVPGFRRCRGMV | inactive |
| CSFIAGAPTSFWVVGLCWKY | -0.031 ± 0.72 |
| CSIARLFWFFPVMPSCIG | -0.236 ± 1.1 |
| CSIGRSTVDVRWGEGLWNRL | inactive |
| CSIWLCNKNVQIAN | inactive |
| CSLLGKMLTYNSDYGFQLNY | inactive |
| CSLQWFMV | inactive |
| CSLVSYSSLLGTCVDGIRDR | inactive |
| CSMVSWLIHCANMHRKTSTS | inactive |
| CSNAHFWVRILKECSLRGSG | 0.587 ± 0.41 |
| CSNLIIMKNSIERQTAFRYN | 0.284 ± 0.14 |
| CSNWLWWYYYVRMYRSVRFS | -0.368 ± 0.64 |
| CSQPCRHFYKVKGGYTFKCL | inactive |
| CSSRMVFLRHLAGFLWGRPP | 0.038 ± 0.85 |
| CSVGSFFRFDIIYWKYAGSL | -0.2 ± 0.36 |
| CTFFGKLLSCFVYSGMVQ | inactive |
| CTKWGGVSVISCQLAVSAKI | inactive |
| CTRHLQMFVNIF | 2.23 ± 0.056 |
| CTRITHGGGVTSLRNTSESN | inactive |
| CTSGLVVGLVFLMI | -0.716 ± 1.4 |
